Holding throughout (assay): cryo-EM structure
Data set [1] has as its target large tegument protein VP1/2 (ORF22) (Varicella-zoster virus (parental Oka strain, recombinant pOka-TK-RFP)) (UniProt P09278).
Data set [2] concerns the molecule itself.
Data set [3] deals with the molecule itself. This is another data set of the same source.

The source of these data is article doi:10.1101/2025.06.27.661840 (bioRxiv, 2025).

Like-named read-outs stand apart in the source and are kept apart here.

With “large tegument protein VP1/2 (ORF22), P09278 1-2763”, the stoichiometry N in data set [1] is 2.

B1: major capsid protein (MCP; ORF40) (natural protein, UniProt P09245 1-1396, looked up)
chain: MTTVSCPANVITTTESDRIAGLFNIPAGIIPTGNVLSTIEVCAHRCIFDFFKQIRSDDNSLYSAQFDILLGTYCNTLNFVRFLELGLSVACICTKFPELAYVRDGVIQFEVQQPMIARDGPHPVDQPVHNYMVKRIHKRSLSAAFAIASEALSLLSNTYVDGTEIDSSLRIRAIQQMARNLRTVLDSFERGTADQLLGVLLEKAPPLSLLSPINKFQPEGHLNRVARAALLSDLKRRVCADMFFMTRHAREPRLISAYLSDMVSCTQPSVMVSRITHTNTRGRQVDGVLVTTATLKRQLLQGILQIDDTAADVPVTYGEMVLQGTNLVTALVMGKAVRGMDDVARHLLDITDPNTLNIPSIPPQSNSDSTTAGLPVNARVPADLVIVGDKLVFLEALERRVYQATRVAYPLIGNIDITFIMPMGVFQANSMDRYTRHAGDFSTVSEQDPRQFPPQGIFFYNKDGILTQLTLRDAMGTICHSSLLDVEATLVALRQQHLDRQCYFGVYVAEGTEDTLDVQMGRFMETWADMMPHHPHWVNEHLTILQFIAPSNPRLRFELNPAFDFFVAPGDVDLPGPQRPPEAMPTVNATLRIINGNIPVPLCPISFRDCRGTQLGLGRHTMTPATIKAVKDTFEDRAYPTIFYMLEAVIHGNERNFCALLRLLTQCIRGYWEQSHRVAFVNNFHMLMYITTYLGNGELPEVCINIYRDLLQHVRALRQTITDFTIQGEGHNGETSEALNNILTDDTFIAPILWDCDALIYRDEAARDRLPAIRVSGRNGYQALHFVDMAGHNFQRRDNVLIHGRPVRGDTGQGIPITPHHDREWGILSKIYYYIVIPAFSRGSCCTMGVRYDRLYPALQAVIVPEIPADEEAPTTPEDPRHPLHAHQLVPNSLNVYFHNAHLTVDGDALLTLQELMGDMAERTTAILVSSAPDAGAATATTRNMRIYDGALYHGLIMMAYQAYDETIATGTFFYPVPVNPLFACPEHLASLRGMTNARRVLAKMVPPIPPFLGANHHATIRQPVAYHVTHSKSDFNTLTYSLLGGYFKFTPISLTHQLRTGFHPGIAFTVVRQDRFATEQLLYAERASESYFVGQIQVHHHDAIGGVNFTLTQPRAHVDLGVGYTAVCATAALRCPLTDMGNTAQNLFFSRGGVPMLHDNVTESLRRITASGGRLNPTEPLPIFGGLRPATSAGIARGQASVCEFVAMPVSTDLQYFRTACNPRGRASGMLYMGDRDADIEAIMFDHTQSDVAYTDRATLNPWASQKHSYGDRLYNGTYNLTGASPIYSPCFKFFTPAEVNTNCNTLDRLLMEAKAVASQSSTDTEYQFKRPPGSTEMTQDPCGLFQEAYPPLCSSDAAMLRTAHAGETGADEVHLAQYLIRDASPLRGCLPLPR
As for B1, the “stoichiometry N” value in data set [2] was 6.

B2: capsid vertex-specific component 2 (CVC2; ORF34) (natural protein, UniProt P09287 1-579, looked up)
chain: MTARYGFGSISFPNKCGIFLSTTKNFIAPNFPIHYWTAPAFELRGRMNPDLEKNTLTLKNAAAVAALDNLRGETITLPTEIDRRLKPLEEQLTRMAKVLDSLETAAAEAEEADAQSEECTRTEIIRNESIHPEVQIAKNDAPLQYDTNFQVDFITLVYLGRARGNNSPGIVFGPWYRTLQERLVLDRPVAARGVDCKDGRISRTFMNTTVTCLQSAGRMYVGDRAYSAFECAVLCLYLMYRTSNSVHEPQVSSFGNLIEHLPEYTETFVNYMTTHENKNSYQFCYDRLPRDQFHARGGRYDQGALTSHSVMDALIRLQVLPPAPGQFNPGVNDIIDRNHTAYVDKIQQAAAAYLERAQNVFLMEDQTLLRLTIDTITALLLLRRLLWNGNVYGDKLKNNFQLGLIVSEATGTPTNNVILRGATGFDGKFKSGNNNFQFLCERYIAPLYTLNRTTELTEMFPGLVALCLDAHTQLSRGSLGRTVIDISSGQYQDRLISLIALELEHRRQNVTSLPIAAVVSIHDSVMLQYERGLGMLMHQPRVRAALEESRRLAQFNVNSDYDLLYFVCLGVIPQFASTP
B2: the “stoichiometry N” value in data set [2] is 2.

B3: capsid triplex protein 2 (TRX2; ORF41) (natural protein, UniProt P09291 1-316, looked up)
chain: MAMPFEIEVLLPGELSPAETSALQKCEGKIITFSTLRHRASLVDIALSSYYINGAPPDTLSLLEAYRMRFAAVITRVIPGKLLAHAIGVGTPTPGLFIQNTSPVDLCNGDYICLLPPVFGSADSIRLDSVGLEIVFPLTIPQTLMREIIAKVVARAVERTAAGAQILPHEVLRGADVICYNGRRYELETNLQHRDGSDAAIRTLVLNLMFSINEGCLLLLALIPTLLVQGAHDGYVNLLIQTANCVRETGQLINIPPMPRIQDGHRRFPIYETISSWISTSSRLGDTLGTRAILRVCVFDGPSTVHPGDRTAVIQV
In the case of B3, the “stoichiometry N” value in data set [2] worked out at 2.

B4: VZV portal protein (pORF54) (natural protein, UniProt P09302 1-769, looked up)
chain: MAEITSLFNNSSGSEEKRIASSVSIDQGLNGSNPNDQYKNMFDIYWNEYAPDIGFCTFPEEDGWMLIHPTTQSMLFRKILAGDFGYTDGQGIYSAVRSTETVIRQVQATVLMNALDATRYEDLAADWEHHIQQCNLHAGALAERYGLCGESEAVRLAHQVFETWRQTLQSSLLEFLRGITGCLYTSGLNGRVGFAKYVDWIACVGIVPVVRKVRSEQNGTPAPLNTYMGQAAELSQMLKVADATLARGAAVVTSLVECMQNVAIMDYDRTRLYYNYNRRLIMAKDDVTGMKGECLVVWPPVVCGEGVVFDSPLQRLSGEVLACYALREHARVCQVLNTAPLRVLIGRRNEDDRSHSTRAVDRIMGENDTTRAGSAASRLVKLIVNLKNMRHVGDITETVRSYLEETGNHILEGSGSVDTSQPGFGKANQSFNGGAMSGTTNVQSAFKTSVVNSINGMLEGYVNNLFKTIEGLKDVNSDLTERLQFKEGELKRLREERVKIKPSKGSHITMAEETRIADLNHEVIDLTGIIGDDAYIANSFQSRYIPPYGDDIKRLSELWKQELVRCFKLHRVNNNQGQEISVSYSNASISLLVAPYFSFILRATRLGFLVTQSEVHRSEEELCQAIFKKARTESYLSQIRILYEMQVRAEVIKRGPRRTPSPSWGLPDPTEDDERIPEPNKINNQYMHVGYKNLSHFMKGHPPERLRVHKVNAADSTLLDKIRANRRRGDGRWDVRNKYTQHFRLQRNDRQLTNTSRRGVGCERRDRRS
Regarding B4, the “stoichiometry N” value in data set [3] turned out to be 12.
